Residue numbers refer to the chain shown, from its start. Numbers in names are those of the source. Where “and” joins values, the source holds several entries; their conditions need not be identical. Identical values can stand only once. Like-named read-outs stand apart in the source and are kept apart here.
How the values were obtained:
[1] = biological target: YhaM ortholog of Staphylococcus aureus (SaYhaM) (Staphylococcus aureus); experiment: SEC
[2] = biological target: T1, YhaM H193A/D194A (Bacillus subtilis, UniProt O07521 1-314, H193A;D194A); experiment: BLI
T1 sequence: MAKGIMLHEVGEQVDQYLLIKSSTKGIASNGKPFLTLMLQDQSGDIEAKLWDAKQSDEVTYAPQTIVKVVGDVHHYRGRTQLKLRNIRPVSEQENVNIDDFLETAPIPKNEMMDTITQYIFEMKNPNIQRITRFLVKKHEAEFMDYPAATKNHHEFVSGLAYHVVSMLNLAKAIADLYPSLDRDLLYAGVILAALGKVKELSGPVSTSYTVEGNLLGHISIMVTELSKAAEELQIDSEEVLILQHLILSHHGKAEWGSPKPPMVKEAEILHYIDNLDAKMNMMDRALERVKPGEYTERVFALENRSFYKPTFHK

[3] = biological target: T2, YhaM (BsYhaM) (Bacillus subtilis (strain DK1042 / NCIB …, UniProt O07521 1-314)); experiment: BLI
T2 sequence: T1 sequence with A193H, A194D

[4] = biological target: T3, YhaM dimers (Bacillus subtilis, UniProt O07521 1-314); experiment: BLI
T3 sequence: T1 sequence with A193H, A194D

[5] = biological target: the molecule itself; experiment: mass photometry
[6] = biological target: the molecule itself; experiment: mass photometry; remark: listed apart in the source
[7] = biological target: the molecule itself; experiment: mass photometry; remark: listed apart in the source

Work on “YhaM ortholog of Staphylococcus aureus (SaYhaM) (enzyme)” yielded a stoichiometry N [1] of 6.

GTTAATTAAGTTTTAACCTTTAAGCTGTAATAGGGAGTTT (ssDNA) [Bli DNA 40-nt]: binds [2]; binds [3].

B1: ssDNA loop (ssDNA)
DNA: TTTTTTTTTTTTTTTTTTTTTTCCCACAACAAGTCCAACGCAAACGGCCACCCCCCCAACAACAATTTTT
B1: binds [4].

B2: YhaM W51A (Bacillus subtilis), OB domain variant (enzyme, UniProt O07521 1-314, looked up)
chain: T1 sequence with W51A, A193H, A194D
In the case of B2, the “stoichiometry N” value [5] is reported as 2 and the “stoichiometry N” value [6] is reported as 6.

B3: YhaM H193A/D194A (Bacillus subtilis), HD motif variant (enzyme, UniProt O07521 1-314, looked up)
chain: T1 sequence
B3 was tested, and the “stoichiometry N” value [7] was 2 and the “stoichiometry N” value [6] was 4 and 6.

B4: YhaM Y76A (Bacillus subtilis), OB domain variant (enzyme, UniProt O07521 1-314, looked up)
chain: T1 sequence with Y76A, A193H, A194D
In the case of B4, the “stoichiometry N” value [6] is reported as 6.

Reference: publication PMC12107432 (Nucleic Acids Research, 2025)
